Assay results taken from publication PMC13544220, “Glycemic and bodyweight effects of GIPR coding variation reflect differences in surface expression and intrinsic functional impairment” (Science Advances, 2026).

Experiments:
Type in all cases: cell-based, human
[1] = test system: wild-type and variant SNAP-GIPR; test: Surface SNAP-GIPR expression (SNAP-tag labelling) in AD293 cells; conditions: for AD293 Surface: Fig S3E, mean; for Surface SNAP-GIPR expression: sheet Fig 1C;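 for all read-outs here: scaled to the experimental average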
Summary of the method: (§1)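 Read-out: whole-cell fluorescence of surface-only SNAP label (Alexa Fluor 647, 500 nM, 10 min, RT), wide-field 20X, several FOVs per well. Flat-field corrected, phase-contrast masked, nontransfected-well signal subtracted; normalized to experiment mean or wild-type.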

[2] = test system: wild-type and variant SNAP-GIPR; test: Surface SNAP-GIPR expression (SNAP-tag labelling) in INS-1 cells; conditions: Fig 4G; Mean
Summary of the method: as §1

[3] = test system: wild-type and variant SNAP-GIPR; test: Single-concentration GIP cAMP response by HTRF in AD293 cells; conditions: Fig S3F, HTRF, mean;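 note: ratio to experiment-wide average response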
Protocol: (§2) All variants were tested in parallel on each occasion to control for transfection efficiency differences between experiments.

[4] = test system: wild-type and variant SNAP-GIPR; test: Single-concentration GIP cAMP response by HTRF in INS-1 cells; conditions: Fig S3E, mean
Protocol: as §2

[5] = test system: wild-type and variant SNAP-GIPR; test: cADDis cAMP imaging in AD293 cells, ensemble, expression-matched and per decile; conditions: Fig S3F, cADDis, mean;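 note: Ensemble cells as % of IBMX/FSK response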
Summary of the method: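 Surface GIPR and cAMP are measured in individual AD293 cells coexpressing SNAP-tagged receptor and the green cADDis biosensor, imaged live at 37°C. Responses are reported ensemble, expression-matched against wild-type deciles with extremes trimmed, or within each variant's own surface deciles.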

[6] = test system: wild-type and variant SNAP-GIPR; test: Constitutive and agonist-mediated internalization, reversible SNAP-tag labelling, AD293 cells; design: key to Internalisation, Vehicle / Internalisation, +GIP / Internalisation, GIP-only: % internalization: residual fluorescence after Mesna vs pre-Mesna; Surface expression: unit not given here; conditions: Mean
Summary of the method: (§3)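 Percentage internalization calculated as specific SNAP fluorescence remaining after 10 min Mesna exposure, relative to pre-Mesna signal, imaged in TNE buffer (pH 8.6).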

[7] = test system: wild-type and variant SNAP-GIPR; test: Constitutive and agonist-mediated internalization, reversible SNAP-tag labelling, INS-1 cells; design: key to Internalisation, GIP-only / Internalisation, Vehicle / Internalisation, +GIP: % internalization: residual fluorescence after Mesna vs pre-Mesna; conditions: Mean
Summary of the method: as §3

B1: S415G (protein, UniProt P48546 22-466, looked up, variant S415G)
Gastric inhibitory …: RAETGSKGQTAGELYQRWERYRRECQETLAAAEPPSGLACNGSFDMYVCWDYAAPNATARASCPWYLPWHHHVAAGFVLRQCGSDGQWGLWRDHTQCENPEKNEAFLDQRLILERLQVMYTVGYSLSLATLLLALLILSLFRRLHCTRNYIHINLFTSFMLRAAAILSRDRLLPRPGPYLGDQALALWNQALAACRTAQIVTQYCVGANYTWLLVEGVYLHSLLVLVGGSEEGHFRYYLLLGWGAPALFVIPWVIVRYLYENTQCWERNEVKAIWWIIRTPILMTILINFLIFIRILGILLSKLRTRQMRCRDYRLRLARSTLTLVPLLGVHEVVFAPVTEEQARGALRFAKLGFEIFLSSFQGFLVSVLYCFINKEVQSEIRRGWHHCRLRRGLGEEQRQLPERAFRALPSGSGPGEVPTSRGLSSGTLPGPGNEASRELESYC
[1]; column repeated, paired with cAMP 100 nM
  AD293 Surface: 1.467
[1]; paired with cAMP 100 pM
  AD293 Surface: 1.467
[1]; replicate 1
  Surface SNAP-GIPR expression: 1.506
[1]; replicate 2
  Surface SNAP-GIPR expression: 0.2667
[1]; replicate 3
  Surface SNAP-GIPR expression: 1.585
[1]; replicate 4
  Surface SNAP-GIPR expression: 2.194
[1]; replicate 5
  Surface SNAP-GIPR expression: 1.195
[1]; replicate 6
  Surface SNAP-GIPR expression: 1.281
[1]; replicate 7
  Surface SNAP-GIPR expression: 1.352
[1]; replicate 8
  Surface SNAP-GIPR expression: 1.443
[1]; replicate 9
  Surface SNAP-GIPR expression: 1.419
[1]; replicate 10
  Surface SNAP-GIPR expression: 1.583
[1]; replicate 11
  Surface SNAP-GIPR expression: 1.553
[1]; replicate 12
  Surface SNAP-GIPR expression: 1.476
[1]; replicate 13
  Surface SNAP-GIPR expression: 2.028
[1]; replicate 14
  Surface SNAP-GIPR expression: 1.05
[1]; replicate 15
  Surface SNAP-GIPR expression: 1.445
[1]; replicate 16
  Surface SNAP-GIPR expression: 1.582
[1]; replicate 17
  Surface SNAP-GIPR expression: 1.552
[1]; replicate 18
  Surface SNAP-GIPR expression: 1.539
[1]; replicate 19
  Surface SNAP-GIPR expression: 1.754
[1]; replicate 20
  Surface SNAP-GIPR expression: 1.368
[1]; replicate 21
  Surface SNAP-GIPR expression: 1.348
[1]; replicate 22
  Surface SNAP-GIPR expression: 1.435
[1]; replicate 23
  Surface SNAP-GIPR expression: 1.476
[1]; replicate 24
  Surface SNAP-GIPR expression: 1.595
[1]; replicate 25
  Surface SNAP-GIPR expression: 1.677
[1]; replicate 26
  Surface SNAP-GIPR expression: 1.136
[1]; replicate 27
  Surface SNAP-GIPR expression: 1.395
[1]; replicate 28
  Surface SNAP-GIPR expression: 1.292
[1]; replicate 29
  Surface SNAP-GIPR expression: 1.605
[1]; replicate 30
  Surface SNAP-GIPR expression: 1.394
[1]; replicate 31
  Surface SNAP-GIPR expression: 1.688
[1]; replicate 32
  Surface SNAP-GIPR expression: 1.36
[1]; replicate 33
  Surface SNAP-GIPR expression: 1.647
[1]; replicate 34
  Surface SNAP-GIPR expression: 1.582
[1]; replicate 35
  Surface SNAP-GIPR expression: 1.005
[1]; replicate 36
  Surface SNAP-GIPR expression: 1.822
[1]; replicate 37
  Surface SNAP-GIPR expression: 1.489
[1]; replicate 38
  Surface SNAP-GIPR expression: 1.364
[1]; replicate 39
  Surface SNAP-GIPR expression: 0.9756
[1]; replicate 40
  Surface SNAP-GIPR expression: 1.792
[1]; replicate 41
  Surface SNAP-GIPR expression: 1.893
[2]
  Surface expression: 1.381
[3]; AD293, 100 pM
  AD293 100 pM HTRF: 1.117
[3]; AD293, 100 nM
  AD293 100 nM HTRF: 1.323
[4]
  INS-1 cAMP (100 nM): 1.389
[5]; AD293, 100 pM
  AD293 100 pM cADDis: 34.3916
[5]; AD293, 100 nM
  AD293 100 nM cADDis: 37.46
[6]; Fig 4E, GIP 100 nM
  +GIP internalisation (100 nM): 0.8449
  GIP-specific internalisation (100 nM): 0.2187
[6]; Fig 4E
  Constitutive internalisation (100 nM): 0.6262
  Surface expression: 1.57
[6]; Fig S4C, AD293
  Internalisation, +GIP: 54.2947
  Internalisation, GIP-only: 14.1911
  Internalisation, Vehicle: 40.1036
[7]; Fig 4G, GIP 100 nM
  +GIP internalisation (100 nM): 0.6865
  GIP-specific internalisation (100 nM): 0.178
[7]; Fig 4G
  Constitutive internalisation (100 nM): 0.5085
[7]; Fig S4C, INS-1
  Internalisation, +GIP: 49.94
  Internalisation, GIP-only: 12.7417
  Internalisation, Vehicle: 37.1983
